To fix the notation:
B1: target 1 insG 3' of 8,insC 3' of 8 (mixed)
RNA 1: CACCCGUGCAAAAAUGCAGGGGUCUAAAACUGAGCGGAUAACCUCUCUAUGG
RNA 2: GGGAAUGGAUCCACAUCUACGAAUUCGUACCAUAGAGAGGUUAUGCCCGCUCACCGAGAUCGGAAGAGCACACGU
B2: target 1 C4A,A20U (mixed)
RNA 1: CACCCGUGCAAAAAUGCAGGGGUCUAAAACUGAGCGGAUAACCUCUCUAUGG
RNA 2: GGGAAUGGAUCCACAUCUACGAAUUCGUACCUUAGAGAGGUUAUCCGAUCACCGAGAUCGGAAGAGCACACGU
B3: target 1 C7U,G17C (mixed)
RNA 1: CACCCGUGCAAAAAUGCAGGGGUCUAAAACUGAGCGGAUAACCUCUCUAUGG
RNA 2: GGGAAUGGAUCCACAUCUACGAAUUCGUACCAUACAGAGGUUAUUCGCUCACCGAGAUCGGAAGAGCACACGU
B4: target 1 C2A,C7U (mixed)
RNA 1: CACCCGUGCAAAAAUGCAGGGGUCUAAAACUGAGCGGAUAACCUCUCUAUGG
RNA 2: GGGAAUGGAUCCACAUCUACGAAUUCGUACCAUAGAGAGGUUAUUCGCUAACCGAGAUCGGAAGAGCACACGU
B5: target 1 del9,del11 (mixed)
RNA 1: CACCCGUGCAAAAAUGCAGGGGUCUAAAACUGAGCGGAUAACCUCUCUAUGG
RNA 2: GGGAAUGGAUCCACAUCUACGAAUUCGUACCAUAGAGAGGUUCCGCUCACCGAGAUCGGAAGAGCACACGU
B6: target 1 insC 3' of 12,insC 3' of 5 (mixed)
RNA 1: CACCCGUGCAAAAAUGCAGGGGUCUAAAACUGAGCGGAUAACCUCUCUAUGG
RNA 2: GGGAAUGGAUCCACAUCUACGAAUUCGUACCAUAGAGAGGCUUAUCCGCCUCACCGAGAUCGGAAGAGCACACGU
B7: target 1 C4G,U8G (mixed)
RNA 1: CACCCGUGCAAAAAUGCAGGGGUCUAAAACUGAGCGGAUAACCUCUCUAUGG
RNA 2: GGGAAUGGAUCCACAUCUACGAAUUCGUACCAUAGAGAGGUUAGCCGGUCACCGAGAUCGGAAGAGCACACGU
B8: target 1 insU 3' of 7,insG 3' of 2 (mixed)
RNA 1: CACCCGUGCAAAAAUGCAGGGGUCUAAAACUGAGCGGAUAACCUCUCUAUGG
RNA 2: GGGAAUGGAUCCACAUCUACGAAUUCGUACCAUAGAGAGGUUAUCUCGCUCGACCGAGAUCGGAAGAGCACACGU
B9: target 1 insU 3' of 12,insC 3' of 8 (mixed)
RNA 1: CACCCGUGCAAAAAUGCAGGGGUCUAAAACUGAGCGGAUAACCUCUCUAUGG
RNA 2: GGGAAUGGAUCCACAUCUACGAAUUCGUACCAUAGAGAGGUUUAUCCCGCUCACCGAGAUCGGAAGAGCACACGU
B10: target 1 G5A,A9G (mixed)
RNA 1: CACCCGUGCAAAAAUGCAGGGGUCUAAAACUGAGCGGAUAACCUCUCUAUGG
RNA 2: GGGAAUGGAUCCACAUCUACGAAUUCGUACCAUAGAGAGGUUGUCCACUCACCGAGAUCGGAAGAGCACACGU
B11: target 1 insG 3' of 14,insA 3' of 6 (mixed)
RNA 1: CACCCGUGCAAAAAUGCAGGGGUCUAAAACUGAGCGGAUAACCUCUCUAUGG
RNA 2: GGGAAUGGAUCCACAUCUACGAAUUCGUACCAUAGAGAGGGUUAUCCAGCUCACCGAGAUCGGAAGAGCACACGU
B12: target 1 insU 3' of 18,insG 3' of 4 (mixed)
RNA 1: CACCCGUGCAAAAAUGCAGGGGUCUAAAACUGAGCGGAUAACCUCUCUAUGG
RNA 2: GGGAAUGGAUCCACAUCUACGAAUUCGUACCAUAUGAGAGGUUAUCCGCGUCACCGAGAUCGGAAGAGCACACGU
B13: target 1 insU 3' of 17,insG 3' of 14 (mixed)
RNA 1: CACCCGUGCAAAAAUGCAGGGGUCUAAAACUGAGCGGAUAACCUCUCUAUGG
RNA 2: GGGAAUGGAUCCACAUCUACGAAUUCGUACCAUAGUAGAGGGUUAUCCGCUCACCGAGAUCGGAAGAGCACACGU
B14: target 1 C4A,U10A (mixed)
RNA 1: CACCCGUGCAAAAAUGCAGGGGUCUAAAACUGAGCGGAUAACCUCUCUAUGG
RNA 2: GGGAAUGGAUCCACAUCUACGAAUUCGUACCAUAGAGAGGUAAUCCGAUCACCGAGAUCGGAAGAGCACACGU
B15: target 1 del7 (mixed)
RNA 1: CACCCGUGCAAAAAUGCAGGGGUCUAAAACUGAGCGGAUAACCUCUCUAUGG
RNA 2: GGGAAUGGAUCCACAUCUACGAAUUCGUACCAUAGAGAGGUUAUCGCUCACCGAGAUCGGAAGAGCACACGU
B16: target 1 insA 3' of 17,insC 3' of 8 (mixed)
RNA 1: CACCCGUGCAAAAAUGCAGGGGUCUAAAACUGAGCGGAUAACCUCUCUAUGG
RNA 2: GGGAAUGGAUCCACAUCUACGAAUUCGUACCAUAGAAGAGGUUAUCCCGCUCACCGAGAUCGGAAGAGCACACGU
B17: target 1 insC 3' of 20,insU 3' of 15 (mixed)
RNA 1: CACCCGUGCAAAAAUGCAGGGGUCUAAAACUGAGCGGAUAACCUCUCUAUGG
RNA 2: GGGAAUGGAUCCACAUCUACGAAUUCGUACCACUAGAGUAGGUUAUCCGCUCACCGAGAUCGGAAGAGCACACGU
B18: target 1 C7G,A14U (mixed)
RNA 1: CACCCGUGCAAAAAUGCAGGGGUCUAAAACUGAGCGGAUAACCUCUCUAUGG
RNA 2: GGGAAUGGAUCCACAUCUACGAAUUCGUACCAUAGAGUGGUUAUGCGCUCACCGAGAUCGGAAGAGCACACGU
B19: target 1 insA 3' of 17,insG 3' of 6 (mixed)
RNA 1: CACCCGUGCAAAAAUGCAGGGGUCUAAAACUGAGCGGAUAACCUCUCUAUGG
RNA 2: GGGAAUGGAUCCACAUCUACGAAUUCGUACCAUAGAAGAGGUUAUCCGGCUCACCGAGAUCGGAAGAGCACACGU
B20: target 1 A1G,U19G (mixed)
RNA 1: CACCCGUGCAAAAAUGCAGGGGUCUAAAACUGAGCGGAUAACCUCUCUAUGG
RNA 2: GGGAAUGGAUCCACAUCUACGAAUUCGUACCAGAGAGAGGUUAUCCGCUCGCCGAGAUCGGAAGAGCACACGU
B21: target 1 insU 3' of 4,insU 3' of 2 (mixed)
RNA 1: CACCCGUGCAAAAAUGCAGGGGUCUAAAACUGAGCGGAUAACCUCUCUAUGG
RNA 2: GGGAAUGGAUCCACAUCUACGAAUUCGUACCAUAGAGAGGUUAUCCGCUUCUACCGAGAUCGGAAGAGCACACGU
B22: target 1 C2A,C7A (mixed)
RNA 1: CACCCGUGCAAAAAUGCAGGGGUCUAAAACUGAGCGGAUAACCUCUCUAUGG
RNA 2: GGGAAUGGAUCCACAUCUACGAAUUCGUACCAUAGAGAGGUUAUACGCUAACCGAGAUCGGAAGAGCACACGU
B23: target 1 insA 3' of 19,insC 3' of 9 (mixed)
RNA 1: CACCCGUGCAAAAAUGCAGGGGUCUAAAACUGAGCGGAUAACCUCUCUAUGG
RNA 2: GGGAAUGGAUCCACAUCUACGAAUUCGUACCAUAAGAGAGGUUACUCCGCUCACCGAGAUCGGAAGAGCACACGU

We go through 23 molecules from PMC10786891, “Massively parallel profiling of RNA-targeting CRISPR-Cas13d”.

The target of the series is T1, EsCas13d, nuclease-dead (Eubacterium siraeum, UniProt B0MS50, R295A;H300A;R849A;H854A).
T1 sequence: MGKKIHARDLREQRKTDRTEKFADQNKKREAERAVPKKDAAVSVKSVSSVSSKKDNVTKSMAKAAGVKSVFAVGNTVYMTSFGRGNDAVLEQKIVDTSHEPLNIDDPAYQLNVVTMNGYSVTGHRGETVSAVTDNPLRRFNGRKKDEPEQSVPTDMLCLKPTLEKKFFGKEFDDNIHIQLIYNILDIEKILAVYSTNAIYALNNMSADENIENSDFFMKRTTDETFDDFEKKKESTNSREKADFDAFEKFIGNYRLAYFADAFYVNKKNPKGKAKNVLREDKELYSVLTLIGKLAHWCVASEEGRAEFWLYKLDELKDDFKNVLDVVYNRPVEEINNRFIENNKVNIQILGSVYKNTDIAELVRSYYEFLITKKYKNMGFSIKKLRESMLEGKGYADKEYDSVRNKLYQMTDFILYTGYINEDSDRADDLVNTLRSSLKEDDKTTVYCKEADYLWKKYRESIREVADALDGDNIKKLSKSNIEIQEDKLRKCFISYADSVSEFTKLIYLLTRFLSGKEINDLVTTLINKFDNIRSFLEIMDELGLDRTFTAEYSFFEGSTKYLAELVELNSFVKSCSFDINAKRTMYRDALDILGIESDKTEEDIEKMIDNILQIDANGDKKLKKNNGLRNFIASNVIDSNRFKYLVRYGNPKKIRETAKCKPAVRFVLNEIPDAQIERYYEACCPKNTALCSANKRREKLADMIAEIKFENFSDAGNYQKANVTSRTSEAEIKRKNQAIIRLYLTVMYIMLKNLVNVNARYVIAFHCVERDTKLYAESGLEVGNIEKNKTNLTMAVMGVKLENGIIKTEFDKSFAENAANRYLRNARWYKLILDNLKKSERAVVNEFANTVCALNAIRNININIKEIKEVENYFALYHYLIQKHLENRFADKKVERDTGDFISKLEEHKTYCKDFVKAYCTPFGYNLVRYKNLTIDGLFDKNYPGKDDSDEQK
Kind of series: crRNA (strand 1, pre-loaded); Mg2+; 40 mM Tris-HCl pH 7.5, 150 mM NaCl, 6 mM MgCl2, 1 mM DTT, 0.1% Tween-20, 0.2 mg/ml BSA; 25 C; 10 min per concentration, then washed. Particulars: tags: His6-TwinStrep-SUMO cleaved; N-terminal SNAP kept (SNAP-Surface 488); label: 3' end held by stalled T7 RNA polymerase.
B1: binding was characterised by a dissociation constant (Kd) of 12.9 ± 0.5 nM.

For B2, binding was put at a Kd of 21.1 ± 3.3 nM.

The molecule B3 had a Kd of 77 ± 35 nM.

In turn, B4 displayed a Kd of 5.2 ± 0.4 nM.

The molecule B5 displayed a Kd of 13.2 ± 1 nM.

B6 returned a Kd of 13.4 ± 0.7 nM.

For the molecule B7, the Kd is 5.52 ± 0.21 nM.

Turning to B8, the affinity, expressed as Kd, was 15.3 ± 1.2 nM.

B9: the Kd came out at 19.5 ± 1 nM.

For the molecule B10, binding was put at a Kd of 19.3 ± 1.1 nM.

With B11, binding was characterised by a dissociation constant (Kd) of 14.6 ± 1.3 nM. The Kd values of the last two molecules are within 1.5-fold of each other.

In turn, B12 registered an equilibrium dissociation constant (Kd) of 20 ± 1.2 nM. This Kd and that of the molecule before are within 1.5-fold of each other.

Molecule B13 gave a Kd of 23 ± 5 nM.

For the molecule B14, the Kd stood at 5.3 ± 0.4 nM.

As for B15, binding was put at a Kd of 8.01 ± 0.33 nM.

With B16, the Kd worked out at 18.6 ± 1.3 nM. Against the preceding molecule, the Kd is about 2.3-fold higher.

In turn, B17 registered a dissociation constant (Kd) of 10 ± 0.7 nM.

Turning to B18, the Kd is 66 ± 16 nM.

In turn, B19 showed a Kd of 19.4 ± 0.8 nM.

As for B20, the equilibrium dissociation constant (Kd) stood at 51 ± 6 nM.

B21 had a Kd of 9.5 ± 0.4 nM. Compared with the last molecule, the Kd is about 5.4-fold lower.

In the case of B22, the Kd was 5.34 ± 0.16 nM.

Molecule B23 registered a Kd of 55 ± 4 nM.

As usually defined, the Kd is the constant that tells how readily two partners part at equilibrium. High values mean weaker binding, low ones tighter binding.
